{"source": "paper PMC5501851", "about": "“A tyrosine aminotransferase involved in rosmarinic acid biosynthesis in Prunella vulgaris L” (Scientific Reports, 2017)", "molecules": {"B1": {"name": "PvTAT (tyrosine aminotransferase of Prunella vulgaris) (Prunella vulgaris) (protein)", "chain": "MELQSSAQELDAPTTITIKGILGLLVSSTDAKETGKRVISLGIGDPTAYSCFHVSNAAQEAVVEALRSQKFNGYAPTAGLPQAREAIAEYLSRDLPYKLPADSVYVTAGCTQAIEIALSVLARPGCNILLPRPCFPIYGLCASFRNIEVRYFDLHPEKGWEVDLDAVQDLADHNTVAMVIINPGNPCGNVYSHQHLRKVAEMAKRLGIVVIADEVYGQLAFGANPFVPMGIFGSIAPVVTLGSLSKRWLIPGWRLGWLVINDPDGSLMSPKFVERIKKYCDINGGPATFIQAAVPEIIEQTQEVFFRKTINILKQTSDICYQKVEDINGISCPTKPKGAMAFMVKLNISQMKDISDDIDFCFKLAKEESVIILPGIAVGLKNWIRITFAVEPSALEEAMERLKSFCERHSY", "notes": "E. coli Rosetta (DE3); cloning primers translate to N-terminus MELQSSAQ and C-terminus FCERHSY"}}, "key": {"[1]": {"target": "T1, PvTAT (tyrosine aminotransferase of Prunella vulgaris) (Prunella vulgaris, UniProt A0A0U1ZFM1)", "T1 construct": "gene tat; E. coli Rosetta (DE3); cloning primers translate to N-terminus MELQSSAQ and C-terminus FCERHSY", "experiment": "phenylpyruvate absorbance at […] nm, nonlinear Michaelis-Menten fit", "type": "biochemical", "conditions": "10 mM α-ketoglutarate; 0.1 mM PLP, 0.75 mM EDTA, 125 mM potassium phosphate pH 8.0, 30 °C"}, "purified protein [2]": {"substrate": "N[C@@H](Cc1c[nH]c2ccccc12)C(=O)O", "experiment": "purified protein", "type": "biochemical, Prunella vulgaris", "conditions": "10 mM α-ketoglutarate, 0.1 mM PLP, 0.75 mM EDTA, 125 mM potassium phosphate pH 8.0, 30 °C"}, "purified protein [3]": {"substrate": "N[C@@H](Cc1ccc(O)cc1)C(=O)O", "experiment": "purified protein", "type": "biochemical, Prunella vulgaris", "conditions": "10 mM α-ketoglutarate, 0.1 mM PLP, 0.75 mM EDTA, 125 mM potassium phosphate pH 8.0, 30 °C"}, "purified protein [4]": {"substrate": "O=C(O)C(=O)Cc1ccc(O)cc1", "experiment": "purified protein", "type": "biochemical, Prunella vulgaris", "conditions": "10 mM L-Glu as amino donor, 0.3 mM NAD, 0.3 mM CoA, 0.75 mM EDTA, 125 mM potassium phosphate pH 8.0, 30 °C"}, "purified protein [5]": {"substrate": "O=C(O)CC(=O)C(=O)O", "experiment": "purified protein", "type": "biochemical, Prunella vulgaris", "conditions": "5.5 mM L-Tyr as amino donor, 0.1 mM PLP, 0.75 mM EDTA, 125 mM potassium phosphate pH 8.0, 30 °C"}, "purified protein [6]": {"substrate": "O=C(O)C(=O)Cc1ccccc1", "experiment": "purified protein", "type": "biochemical, Prunella vulgaris", "conditions": "5.5 mM L-Tyr as amino donor, 0.1 mM PLP, 0.75 mM EDTA, 125 mM potassium phosphate pH 8.0, 30 °C"}, "purified protein [7]": {"substrate": "CC(=O)C(=O)O", "experiment": "purified protein", "type": "biochemical, Prunella vulgaris", "conditions": "5.5 mM L-Tyr as amino donor, 0.1 mM PLP, 0.75 mM EDTA, 125 mM potassium phosphate pH 8.0, 30 °C"}, "purified protein [8]": {"substrate": "O=C(O)CCC(=O)C(=O)O", "experiment": "purified protein", "type": "biochemical, Prunella vulgaris", "conditions": "5.5 mM L-Tyr as amino donor, 0.1 mM PLP, 0.75 mM EDTA, 125 mM potassium phosphate pH 8.0, 30 °C"}}, "data": [{"molecule": "N[C@@H](Cc1ccccc1)C(=O)O", "note": "[L-Phe]", "values": [{"measurement": "Km", "setting": "[1]", "result": "10.2 ± 0.05", "unit": "mM"}]}, {"molecule": "B1", "values": [{"measurement": "Km", "setting": "purified protein [2]", "result": "8.14 ± 1.04", "unit": "mM"}, {"measurement": "Vmax", "setting": "purified protein [2]", "result": 1.53, "unit": "µmol/min/mg"}, {"measurement": "kcat", "setting": "purified protein [2]", "result": "1.05 ± 0.08", "unit": "s⁻¹"}, {"measurement": "kcat/Km", "setting": "purified protein [2]", "result": "130 ± 8", "unit": "M⁻¹ s⁻¹"}, {"measurement": "Km", "setting": "purified protein [3]", "result": "0.40 ± 0.05", "unit": "mM"}, {"measurement": "Vmax", "setting": "purified protein [3]", "result": 1.74, "unit": "µmol/min/mg"}, {"measurement": "kcat", "setting": "purified protein [3]", "result": "1.19 ± 0.009", "unit": "s⁻¹"}, {"measurement": "kcat/Km", "setting": "purified protein [3]", "result": "3030 ± 350", "unit": "M⁻¹ s⁻¹"}, {"measurement": "Km", "setting": "purified protein [4]", "result": "0.48 ± 0.004", "unit": "mM"}, {"measurement": "Vmax", "setting": "purified protein [4]", "result": 0.18, "unit": "µmol/min/mg"}, {"measurement": "kcat", "setting": "purified protein [4]", "result": "0.121 ± 0.01", "unit": "s⁻¹"}, {"measurement": "kcat/Km", "setting": "purified protein [4]", "result": "295 ± 35", "unit": "M⁻¹ s⁻¹"}, {"measurement": "Km", "setting": "purified protein [5]", "result": "4.72 ± 0.05", "unit": "mM"}, {"measurement": "Vmax", "setting": "purified protein [5]", "result": 1.06, "unit": "µmol/min/mg"}, {"measurement": "kcat", "setting": "purified protein [5]", "result": "0.73 ± 0.01", "unit": "s⁻¹"}, {"measurement": "kcat/Km", "setting": "purified protein [5]", "result": "150 ± 5", "unit": "M⁻¹ s⁻¹"}, {"measurement": "Km", "setting": "purified protein [6]", "result": "3.90 ± 0.067", "unit": "mM"}, {"measurement": "Vmax", "setting": "purified protein [6]", "result": 0.43, "unit": "µmol/min/mg"}, {"measurement": "kcat", "setting": "purified protein [6]", "result": "0.3 ± 0.01", "unit": "s⁻¹"}, {"measurement": "kcat/Km", "setting": "purified protein [6]", "result": "76 ± 1", "unit": "M⁻¹ s⁻¹"}, {"measurement": "Km", "setting": "purified protein [7]", "result": "52.06 ± 1.38", "unit": "mM"}, {"measurement": "Vmax", "setting": "purified protein [7]", "result": 1.3, "unit": "µmol/min/mg"}, {"measurement": "kcat", "setting": "purified protein [7]", "result": "0.89 ± 0.01", "unit": "s⁻¹"}, {"measurement": "kcat/Km", "setting": "purified protein [7]", "result": "20 ± 3", "unit": "M⁻¹ s⁻¹"}, {"measurement": "Km", "setting": "purified protein [8]", "result": "10.80 ± 0.19", "unit": "mM"}, {"measurement": "Vmax", "setting": "purified protein [8]", "result": 0.92, "unit": "µmol/min/mg"}, {"measurement": "kcat", "setting": "purified protein [8]", "result": "0.63 ± 0.002", "unit": "s⁻¹"}, {"measurement": "kcat/Km", "setting": "purified protein [8]", "result": "60 ± 8", "unit": "M⁻¹ s⁻¹"}]}]}
